Data published in patent publication US20050100897A1, “NFAT transcription factors in tumor progression” (priority 2002, published 2005).

B1: DBD5: NFAT-5 dominant negative mutant comprising amino acids 175-471 (SEQ ID NO:14) of NFAT5a (protein, listed as Homo sapiens)
chain: GNGTLENQKGTGVKKSPMLCGQYPVKSEGKELKIVVQPETQHRARYLTEGSRGSVKDRTQQGFPTVKLEGHNEPVVLQVFVGNDSGRVKPHGFYQACRVTGRNTTPCKEVDIEGTTVIEVGLDPSNNMTLAVDCVGILKLRNADVEARIGIAGSKKKSTRARLVFRVNIMRKDGSTLTLQTPSSPILCTQPAGVPEILKKSLHSCSVKGEEEVFLIGKNFLKGTKVIFQENVSDENSWKSEAEIDMELFHQNHLIVKVPPYHDQHITLPVSVGIYVVTNAGRSHDVQPFTYTPDPAA
B2: wild-type NFAT-5: wild-type NFAT-5 tagged with the myc epitope, transiently overexpressed (protein)
chain: MSQTSGGEAGSPPPAVVAADASSAPSSSSMGGACSSFTTSSSPTIYSTSVTDSKAMQVESCSSAVGVSNRGVSEKQLTSNTVQQHPSTPKRHTVLYISPPPEDLLDNSRMSCQDEGCGLESEQSCSMWMEDSPSNFSNMSTSSYNDNTEVPRKSRKRNPKQRPGVKRRDCEESNMDIFDADSAKAPHYVLSQLTTDNKGNSKAGNGTLENQKGTGVKKSPMLCGQYPVKSEGKELKIVVQPETQHRARYLTEGSRGSVKDRTQQGFPTVKLEGHNEPVVLQVFVGNDSGRVKPHGFYQACRVTGRNTTPCKEVDIEGTTVIEVGLDPSNNMTLAVDCVGILKLRNADVEARIGIAGSKKKSTRARLVFRVNIMRKDGSTLTLQTPSSPILCTQPAGVPEILKKSLHSCSVKGEEEVFLIGKNFLKGTKVIFQENVSDENSWKSEAEIDMELFHQNHLIVKVPPYHDQHITLPVSVGIYVVTNAGRSHDVQPFTYTPDPAAAGALNVNVKKEISSPARPCSFEEAMKAMKTTGCNLDKVNIIPNALMTPLIPSSMIKSEDVTPMEVTAEKRSSTIFKTTKSVGSTQQTLENISNIAGNGSFSSPSSSHLPSENEKQQQIQPKAYNPETLTTIQTQDISQPGTFPAVSASSQLPNSDALLQQATQFQTRETQSREILQSDGTVVNLSQLTEASQQQQQSPLQEQAQTLQQQISSNIFPSPNSVSQLQNTIQQLQAGSFTGSTASGSSGSVDLVQQVLEAQQQLSSVLFSAPDGNENVQEQLSADIFQQVSQIQSGVSPGMFSSTEPTVHTRPDNLLPGRAESVHPQSENTLSNQQQQQQQQQQVMESSAAMVMEMQQSICQAAAQIQSELFPSTASANGNLQQSPVYQQTSHMMSALSTNEDMQMQCELFSSPPAVSGNETSTTTTQQVATPGTTMFQTSSSGDGEETGTQAKQIQNSVFQTMVQMQHSGDNQPQVNLFSSTKSMMSVQNSGTQQQGNGLFQQGNEMMSLQSGNFLQQSSHSQAQLFHPQNPIADAQNLSQETQGSLFHSPNPIVHSQTSTTSSEQMQPPMFHSQSTIAVLQGSSVPQDQQSTNIFLSQSPMNNLQTNTVAQEAFFAAPNSISPLQSTSNSEQQAAFQQQAPISHIQTPMLSQEQAQPPQQGLFQPQVALGSLPPNPMPQSQQGTMFQSQHSIVAMQSNSPSQEQQQQQQQQQQQQQQQQQSILFSNQNTMATMASPKQPPPNMIFNPNQNPMANQEQQNQSIFHQQSNMAPMNQEQQPMQFQSQSTVSSLQNPGPTQSESSQTPLFHSSPQIQLVQGSPSSQEQQVTLFLSPASMSALQTSINQQDMQQSPLYSPQNNMPGIQGATSSPQPQATLFHNTAGGTMNQLQNSPGSSQQTSGMFLFGIQNNCSQLLTSGPATLPDQLMAISQPGQPQNEGQPPVTTLLSQQMPENSPLASSINTNQNIEKIDLLVSLQNQGNNLTGSF
B3: wild-type NFAT-1: wild-type NFAT-1 tagged with the HA epitope, transiently overexpressed (protein)
chain: MNAPERQPQPDGGDAPGHEPGGSPQDELDFSILFDYEYLNPNEEEPNAHKVASPPSGPAYPDDVMDYGLKPYSPLASLSGEPPGRFGEPDRVGPQKFLSAAKPAGASGLSPRIEITPSHELIQAVGPLRMRDAGLLVEQPPLAGVAASPRFTLPVPGFEGYREPLCLSPASSGSSASFISDTFSPYTSPCVSPNNGGPDDLCPQFQNIPAHYSPRTSPIMSPRTSLAEDSCLGRHSPVPRPASRSSSPGAKRRHSCAEALVALPPGASPQRSRSPSPQPSSHVAPQDHGSPAGYPPVAGSAVIMDALNSLATDSPCGIPPKMWKTSPDPSPVSAAPSKAGLPRHIYPAVEFLGPCEQGERRNSAPESILLVPPTWPKPLVPAIPICSIPVTASLPPLEWPLSSQSGSYELRIEVQPKPHHRAHYETEGSRGAVKAPTGGHPVVQLHGYMENKPLGLQIFIGTADERILKPHAFYQVHRITGKTVTTTSYEKIVGNTKVLEIPLEPKNNMRATIDCAGILKLRNADIELRKGETDIGRKNTRVRLVFRVHIPESSGRIVSLQTASNPIECSQRSAHELPMVERQDTDSCLVYGGQQMILTGQNFTSESKVVFTEKTTDGQQIWEMEATVDKDKSQPNMLFVEIPEYRNKHIRTPVKVNFYVINGKRKRSQPQHFTYHPVPAIKTEPTDEYDPTLICSPTHGGLGSQPYYPQHPMVAESPSCLVATMAPCQQFRTGLSSPDARYQQQNPAAVLYQRSKSLSPSLLGYQQPALMAAPLSLADAHRSVLVHAGSQGQSSALLHPSPTNQQASPVIHYSPTNQQLRCGSHQEFQHIMYCENFAPGTTRPGPPPVSQGQRLSPGSYPTVIQQQNATSQRAAKNGPPVSDQKEVLPAGVTIKQEQNLDQTYLDDELIDTHLSWIQNIL

Assays:
Assay type in all cases: cell-based, human
[1] = test system: Clone A colon cancer cell line; test: Matrigel chemoinvasion assay, Clone A cells; conditions: transient transfection
Protocol: Invasion assays were performed using standard methods (see Shaw et al., Cell 91:949-960, 1997) using Transwell chambers coated with Matrigel. Briefly, cells were co-transfected with the indicated NFAT constructs, 1 μg EGFP-N1 (Clontech) and 1 μg pCS2-(n)β-Gal, a •gal expression vector (Dave Turner, University of Michigan) using the Lipofectamine procedure (Life Technologies), and after twenty-four hours, the cells were resuspended in serum-free medium containing 0.1% bovine serum albumin (BSA) and added to each well. […] Cells that stained positive for β-galactosidase expression were counted, and the mean of triplicate assays for each experimental condition was used as % relative invasion.

[2] = test system: parental MDA-MB-435 β4-negative cells; test: Matrigel invasion assay, parental MDA-MB-435 cells; conditions: transient transfection, parental MDA-MB-435 (no α6β4)
Protocol: (§1) FIGS. 5A-5B are graphs and immunoblots showing the effects of NFAT1 and NFAT5 over expression on transfected cells. Parental MDA-MB-435 β4-negative cells were transiently transfected with wild-type NFAT-1 (FIG. 5A) tagged with the HA epitope (NFAT-1) or with wild-type NFAT-5 (FIG. 5B) tagged with the myc epitope (NFAT-5) or control vector alone (vector). Following the transfection protocol, cells were assayed for their ability to migrate or to invade Matrigel. Relative migration/invasion were determined by comparing the amount of migration/invasion obtained from NFAT transfectants to that obtained from cells transfected with vector alone, which was assigned a value of 100%. An aliquot of transfected cells was lysed and nuclear extracts were resolved by SDS PAGE and immunoblotted with anti-HA or anti-myc. The data shown are mean values (±SEM) of 3 experiments performed in triplicate.
(§2) Invasion assays were performed using standard methods (see Shaw et al., Cell 91:949-960, 1997) using Transwell chambers coated with Matrigel. […] Cells that stained positive for β-galactosidase expression were counted, and the mean of triplicate assays for each experimental condition was used as % relative invasion. […]

[3] = test system: parental MDA-MB-435 cells; test: Chemotactic migration assay (Transwell without Matrigel), parental MDA-MB-435; conditions: transient transfection; conditioned media present, no Matrigel
Protocol: as §1
Increased cell migration was intimately linked with carcinoma invasion. […]
as §2

Molecule	carcinoma invasion (relative invasion vs vector alone) [1]	carcinoma invasion [2]	chemotactic migration [3]
B1	also inhibited invasion	–	–
B2	–	this was not observed	sufficient to increase chemotactic migration
B3	–	also induced carcinoma invasion	sufficient to increase chemotactic migration
